The record followed here is patent US20150329626A1 (Eli Lilly, published 2015).

In general, Kd refers to the concentration at which binding is half-saturated. A low value points to a tighter complex. By koff is commonly meant the first-order rate constant of dissociation. Read a high koff as fast dissociation. For orientation: kon means the second-order rate constant of association. High values mean faster complex formation, low ones slower complex formation.

For experiment [1], the target named is T1, dog Ang2 (dog, UniProt A0A8J8 19-495, limits assumed).
T1 sequence (looked up): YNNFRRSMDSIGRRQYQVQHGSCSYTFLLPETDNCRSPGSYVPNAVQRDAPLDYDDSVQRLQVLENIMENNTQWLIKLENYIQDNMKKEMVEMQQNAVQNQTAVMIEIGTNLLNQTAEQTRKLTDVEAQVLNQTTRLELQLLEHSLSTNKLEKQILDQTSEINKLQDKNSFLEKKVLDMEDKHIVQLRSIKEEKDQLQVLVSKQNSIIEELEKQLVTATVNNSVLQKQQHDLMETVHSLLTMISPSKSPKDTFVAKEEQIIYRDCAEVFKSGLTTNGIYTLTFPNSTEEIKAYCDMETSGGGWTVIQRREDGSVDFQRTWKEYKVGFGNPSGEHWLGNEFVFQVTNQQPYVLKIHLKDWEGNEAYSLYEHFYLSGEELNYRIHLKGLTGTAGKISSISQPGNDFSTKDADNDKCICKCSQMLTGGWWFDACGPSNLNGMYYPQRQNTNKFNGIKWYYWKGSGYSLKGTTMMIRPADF
Description: Biacore SPR, 37 C, n = 3, compound captured on Protein A.

For experiment [2], the target named is T2, rabbit Ang2 (rabbit, UniProt G1T9B3 19-496).
T2 sequence: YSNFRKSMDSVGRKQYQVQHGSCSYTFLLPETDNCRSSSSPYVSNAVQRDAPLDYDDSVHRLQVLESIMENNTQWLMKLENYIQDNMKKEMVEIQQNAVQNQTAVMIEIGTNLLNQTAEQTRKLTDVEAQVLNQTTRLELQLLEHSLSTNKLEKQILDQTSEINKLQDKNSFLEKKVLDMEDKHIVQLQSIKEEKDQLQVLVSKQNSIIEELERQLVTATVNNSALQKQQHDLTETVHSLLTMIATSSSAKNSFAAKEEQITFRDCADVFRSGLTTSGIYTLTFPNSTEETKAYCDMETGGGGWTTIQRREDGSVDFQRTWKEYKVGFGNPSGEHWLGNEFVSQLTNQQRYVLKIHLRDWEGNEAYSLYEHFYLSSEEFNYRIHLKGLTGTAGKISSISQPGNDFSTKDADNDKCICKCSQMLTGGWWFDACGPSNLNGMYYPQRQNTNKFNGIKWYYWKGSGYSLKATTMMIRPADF
The description is as above.

In experiment [3] the target is T3, mouse Ang2 (mouse, UniProt O35608 19-496, limits assumed).
T3 sequence (looked up): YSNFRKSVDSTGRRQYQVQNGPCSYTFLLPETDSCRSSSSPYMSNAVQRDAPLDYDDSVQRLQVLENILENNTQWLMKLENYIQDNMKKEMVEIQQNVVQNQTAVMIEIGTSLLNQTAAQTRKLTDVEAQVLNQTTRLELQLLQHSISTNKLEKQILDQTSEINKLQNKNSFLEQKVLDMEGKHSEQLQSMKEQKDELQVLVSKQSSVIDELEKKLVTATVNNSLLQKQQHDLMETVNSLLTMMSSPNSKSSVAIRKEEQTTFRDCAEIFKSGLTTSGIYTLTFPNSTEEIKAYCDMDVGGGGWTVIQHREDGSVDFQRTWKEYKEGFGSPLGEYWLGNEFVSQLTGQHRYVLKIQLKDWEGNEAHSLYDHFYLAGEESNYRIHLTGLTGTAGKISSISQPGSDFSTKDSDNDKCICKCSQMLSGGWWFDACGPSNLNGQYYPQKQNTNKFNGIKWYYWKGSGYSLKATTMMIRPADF
Described as above.

Experiment [4] has as its target T4, human Ang2 (human, UniProt O15123 19-496).
T4 construct: also called hAng2; human angiopoietin-2
T4 sequence: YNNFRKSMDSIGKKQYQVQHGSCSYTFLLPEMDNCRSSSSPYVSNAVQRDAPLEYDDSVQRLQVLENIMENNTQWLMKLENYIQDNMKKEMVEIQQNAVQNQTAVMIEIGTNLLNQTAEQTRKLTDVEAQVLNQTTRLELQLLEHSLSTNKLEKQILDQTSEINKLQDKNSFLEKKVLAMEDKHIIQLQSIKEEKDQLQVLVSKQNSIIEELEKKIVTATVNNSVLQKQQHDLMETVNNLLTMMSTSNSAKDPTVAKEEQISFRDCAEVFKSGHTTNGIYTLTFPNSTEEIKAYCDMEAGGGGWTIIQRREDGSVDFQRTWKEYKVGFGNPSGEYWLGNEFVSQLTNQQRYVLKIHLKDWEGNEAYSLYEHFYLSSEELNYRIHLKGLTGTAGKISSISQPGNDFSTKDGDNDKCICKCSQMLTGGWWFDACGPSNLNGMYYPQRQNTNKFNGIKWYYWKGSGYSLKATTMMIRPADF
The description is as above.

Experiment [5] deals with human VEGFR2 on cells (ECFC, HMVEC-d) (human, UniProt P35968 20-1356). Description: cell-based or functional assay.
The target in experiment [6] is T4, human Ang2. Put plainly: cell-based or functional assay.
Experiment [7] addresses T4, human Ang2. Put plainly: Biacore SPR, 25 C, compound captured on Protein A, Ang2 as analyte. (Surface plasmon resonance follows binding to a sensor surface in real time, without labels.)
Experiment [8] has as its target T5, human VEGFR2 extracellular domain (human, UniProt P35968 20-764).
T5 construct: also called hVEGFR2-ECD; human VEGFR2-ECD
Put plainly: Biacore SPR, 25 C, compound captured on Protein A, VEGFR2-ECD as analyte.

T5 sequence (P35968 20-764): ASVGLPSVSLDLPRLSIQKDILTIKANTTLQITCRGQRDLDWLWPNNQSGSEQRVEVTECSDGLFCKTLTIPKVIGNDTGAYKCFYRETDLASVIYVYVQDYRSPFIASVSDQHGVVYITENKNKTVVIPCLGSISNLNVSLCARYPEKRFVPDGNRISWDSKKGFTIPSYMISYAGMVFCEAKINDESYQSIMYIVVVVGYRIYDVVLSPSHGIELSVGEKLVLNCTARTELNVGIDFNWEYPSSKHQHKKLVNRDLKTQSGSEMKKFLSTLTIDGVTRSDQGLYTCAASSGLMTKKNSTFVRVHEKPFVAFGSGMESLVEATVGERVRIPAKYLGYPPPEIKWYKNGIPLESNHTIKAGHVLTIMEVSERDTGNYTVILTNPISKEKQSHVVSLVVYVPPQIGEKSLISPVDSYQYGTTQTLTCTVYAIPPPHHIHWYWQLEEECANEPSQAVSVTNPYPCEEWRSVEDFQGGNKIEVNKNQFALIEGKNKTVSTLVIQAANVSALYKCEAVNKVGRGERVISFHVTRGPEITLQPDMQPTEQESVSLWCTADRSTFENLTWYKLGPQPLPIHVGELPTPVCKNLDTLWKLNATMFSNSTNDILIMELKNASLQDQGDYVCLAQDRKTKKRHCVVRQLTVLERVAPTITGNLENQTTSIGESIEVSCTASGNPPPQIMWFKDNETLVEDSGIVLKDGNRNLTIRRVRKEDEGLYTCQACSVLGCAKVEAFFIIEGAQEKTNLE
human VEGFR2 on cells (ECFC, HMVEC-d), sequence (P35968 20-1356): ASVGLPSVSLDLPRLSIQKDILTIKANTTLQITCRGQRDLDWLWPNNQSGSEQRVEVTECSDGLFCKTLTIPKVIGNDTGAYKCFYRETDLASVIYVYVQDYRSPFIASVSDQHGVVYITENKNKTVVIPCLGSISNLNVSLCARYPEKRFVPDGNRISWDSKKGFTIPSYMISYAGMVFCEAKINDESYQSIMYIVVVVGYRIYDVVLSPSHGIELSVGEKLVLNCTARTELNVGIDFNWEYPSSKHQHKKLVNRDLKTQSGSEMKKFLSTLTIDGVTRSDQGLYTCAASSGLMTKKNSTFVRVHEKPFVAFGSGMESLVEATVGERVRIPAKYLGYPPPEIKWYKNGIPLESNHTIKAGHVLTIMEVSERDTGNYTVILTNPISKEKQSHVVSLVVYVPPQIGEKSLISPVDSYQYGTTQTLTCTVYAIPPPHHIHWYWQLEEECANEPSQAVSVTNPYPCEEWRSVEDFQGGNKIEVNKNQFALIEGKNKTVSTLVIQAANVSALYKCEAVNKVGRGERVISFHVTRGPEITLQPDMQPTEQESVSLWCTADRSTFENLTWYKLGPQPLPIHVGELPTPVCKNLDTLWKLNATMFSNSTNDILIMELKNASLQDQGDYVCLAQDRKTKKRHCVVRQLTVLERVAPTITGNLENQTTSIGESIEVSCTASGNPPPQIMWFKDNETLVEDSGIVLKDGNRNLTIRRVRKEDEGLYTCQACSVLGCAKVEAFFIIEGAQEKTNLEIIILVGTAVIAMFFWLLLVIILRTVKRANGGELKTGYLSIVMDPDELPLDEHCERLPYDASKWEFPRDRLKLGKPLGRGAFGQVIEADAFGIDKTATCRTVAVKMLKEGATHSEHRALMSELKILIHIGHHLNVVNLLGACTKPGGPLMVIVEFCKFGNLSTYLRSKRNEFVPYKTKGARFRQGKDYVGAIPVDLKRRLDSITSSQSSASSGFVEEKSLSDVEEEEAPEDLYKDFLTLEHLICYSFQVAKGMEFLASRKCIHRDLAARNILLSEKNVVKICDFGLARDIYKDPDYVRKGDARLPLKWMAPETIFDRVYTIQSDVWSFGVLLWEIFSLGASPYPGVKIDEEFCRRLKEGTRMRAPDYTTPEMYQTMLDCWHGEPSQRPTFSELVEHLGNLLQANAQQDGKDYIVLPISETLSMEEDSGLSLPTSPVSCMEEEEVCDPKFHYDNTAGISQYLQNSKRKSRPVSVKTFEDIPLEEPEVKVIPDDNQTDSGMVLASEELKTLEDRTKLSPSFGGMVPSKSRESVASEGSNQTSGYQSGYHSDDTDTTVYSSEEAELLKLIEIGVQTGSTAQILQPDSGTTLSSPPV

B1: Compound F (bispecific antibody, human IgG4 S228P, kappa, F234A L235A)
heavy: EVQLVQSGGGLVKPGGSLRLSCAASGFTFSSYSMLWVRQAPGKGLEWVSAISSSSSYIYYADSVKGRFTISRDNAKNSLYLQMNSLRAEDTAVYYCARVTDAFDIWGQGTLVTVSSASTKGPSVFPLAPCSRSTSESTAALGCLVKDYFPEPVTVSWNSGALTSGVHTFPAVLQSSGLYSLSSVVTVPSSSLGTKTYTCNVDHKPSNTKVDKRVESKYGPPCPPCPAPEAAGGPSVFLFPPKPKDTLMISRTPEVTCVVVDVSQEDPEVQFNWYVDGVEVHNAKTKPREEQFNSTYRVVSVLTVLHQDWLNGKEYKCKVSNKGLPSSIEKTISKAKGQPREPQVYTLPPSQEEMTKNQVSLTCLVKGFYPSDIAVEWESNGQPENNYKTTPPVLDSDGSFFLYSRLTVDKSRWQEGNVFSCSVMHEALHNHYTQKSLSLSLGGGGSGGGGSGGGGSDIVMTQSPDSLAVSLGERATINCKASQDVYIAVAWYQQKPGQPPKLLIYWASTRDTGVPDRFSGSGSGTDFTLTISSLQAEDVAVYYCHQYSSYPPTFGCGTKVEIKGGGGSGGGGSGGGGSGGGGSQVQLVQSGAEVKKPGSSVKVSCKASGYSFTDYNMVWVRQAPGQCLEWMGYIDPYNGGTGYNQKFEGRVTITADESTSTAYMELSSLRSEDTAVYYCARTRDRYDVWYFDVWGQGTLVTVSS
light: DIQMTQSPSSVSASVGDRVTITCRASRGIDNWLTWYQQKPGKAPKLLIYEASSLQSGVPSRFSGSGSGTDFTLTISSLQPEDFATYYCQQAKAFPPTFGGGTKVDIKRTVAAPSVFIFPPSDEQLKSGTASVVCLLNNFYPREAKVQWKVDNALQSGNSQESVTEQDSKDSTYSLSSTLTLSKADYEKHKVYACEVTHQGLSSPVTKSFNRGEC
notes: also called Cmpd F
In the case of B1, the Kd in experiment [1] was 0.24 nM; in experiment [2], 0.42 nM; in experiment [3], 0.23 nM; in experiment [4] it was 0.1 nM; in experiment [7], 0.673 nM; in experiment [8] it was 0.721 nM. In addition, the koff was 9e-05 s⁻¹ in experiment [1]; 0.00011 s⁻¹ in experiment [2]; 8e-05 s⁻¹ in experiment [3]; 7e-05 s⁻¹ in experiment [4]; 0.000105 s⁻¹ in experiment [7]; 1.8e-05 s⁻¹ in experiment [8]. The kon was determined as 360000 M⁻¹ s⁻¹ in experiment [1]; 270000 M⁻¹ s⁻¹ in experiment [2]; 360000 M⁻¹ s⁻¹ in experiment [3]; 820000 M⁻¹ s⁻¹ in experiment [4]; 156000 M⁻¹ s⁻¹ in experiment [7]; 25000 M⁻¹ s⁻¹ in experiment [8]. In addition, the “inhibition of human VEGF165-induced proliferation of HMVEC-d (IC50)” value in experiment [5] stood at 19.2 nM. Further, in experiment [5], the “inhibition of human VEGF-induced cord formation in ADSC/ECFC co-culture (IC50)” value came to 6.04 nM. Further, the “inhibition of human Ang2 induced phospho-Tie2 in CHO-Tie2 cells (IC50)” value in experiment [6] stood at 0.587 nM.
